# Measurements published in article PMC13544220, “Glycemic and bodyweight effects of GIPR coding variation reflect differences in surface expression and intrinsic functional impairment” (Science Advances, 2026).
# B1: L262V (protein, UniProt P48546 22-466, looked up, variant L262V)
# Gastric inhibitory …: RAETGSKGQTAGELYQRWERYRRECQETLAAAEPPSGLACNGSFDMYVCWDYAAPNATARASCPWYLPWHHHVAAGFVLRQCGSDGQWGLWRDHTQCENPEKNEAFLDQRLILERLQVMYTVGYSLSLATLLLALLILSLFRRLHCTRNYIHINLFTSFMLRAAAILSRDRLLPRPGPYLGDQALALWNQALAACRTAQIVTQYCVGANYTWLLVEGVYLHSLLVLVGGSEEGHFRYYLLVGWGAPALFVIPWVIVRYLYENTQCWERNEVKAIWWIIRTPILMTILINFLIFIRILGILLSKLRTRQMRCRDYRLRLARSTLTLVPLLGVHEVVFAPVTEEQARGALRFAKLGFEIFLSSFQGFLVSVLYCFINKEVQSEIRRGWHHCRLRRSLGEEQRQLPERAFRALPSGSGPGEVPTSRGLSSGTLPGPGNEASRELESYC
# Tests used:
# Format in all cases: cell-based, human
# [1] = system: wild-type and variant SNAP-GIPR; experiment: Surface SNAP-GIPR expression (SNAP-tag labelling) in AD293 cells; conditions: for AD293 Surface: Fig S3E, mean; for Surface SNAP-GIPR expression: sheet Fig 1C;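 on all read-outs here: scaled to the experimental average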
# In short: (§1)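 Surface GIPR is quantified from wide-field images after labelling intact transfected cells with a membrane-impermeant SNAP probe at 500 nM for 10 min at room temperature. Specific signal, corrected for nontransfected cells, is normalized to the experiment-wide average or to wild-type.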
# [2] = system: wild-type and variant SNAP-GIPR; experiment: Surface SNAP-GIPR expression (SNAP-tag labelling) in INS-1 cells; conditions: Fig 4G; Mean
# In short: as §1
# [3] = system: wild-type and variant SNAP-GIPR; experiment: Single-concentration GIP cAMP response by HTRF in AD293 cells; conditions: Fig S3F, HTRF, mean;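 further: ratio to experiment-wide average response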
# Procedure: (§2) All variants were tested in parallel on each occasion to control for transfection efficiency differences between experiments.
# [4] = system: wild-type and variant SNAP-GIPR; experiment: Single-concentration GIP cAMP response by HTRF in INS-1 cells; conditions: Fig S3E, mean
# Procedure: as §2
# [5] = system: wild-type and variant SNAP-GIPR; experiment: cADDis cAMP imaging in AD293 cells, ensemble, expression-matched and per decile; conditions: Fig S3F, cADDis, mean
# In short: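 Transient SNAP-GIPR plus cADDis BacMam in AD293; 24 h; SNAP-Surface AF647 500 nM, 10 min RT; wide-field 10X imaging at 37°C in KRBH/6 mM glucose/0.1% BSA. Cells failing IBMX/FSK response criteria excluded.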
# [6] = system: wild-type and variant SNAP-GIPR; experiment: Constitutive and agonist-mediated internalization, reversible SNAP-tag labelling, AD293 cells; design: key to Internalisation, Vehicle / Internalisation, +GIP / Internalisation, GIP-only: % internalization: residual fluorescence after Mesna vs pre-Mesna; Surface expression: unit not given here; conditions: Mean
# In short: (§3)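 Surface SNAP-GIPR signal removable by Mesna was tracked by imaging before and 10 min after treatment in pH 8.6 TNE buffer. Internalization is the Mesna-resistant share of specific fluorescence.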
# [7] = system: wild-type and variant SNAP-GIPR; experiment: Constitutive and agonist-mediated internalization, reversible SNAP-tag labelling, INS-1 cells; design: key to Internalisation, GIP-only / Internalisation, Vehicle / Internalisation, +GIP: % internalization: residual fluorescence after Mesna vs pre-Mesna; conditions: Mean
# In short: as §3
molecule,measurement,setting,value
B1,AD293 Surface,"[1]; column repeated, paired with cAMP 100 nM",1.3
same,AD293 Surface,[1]; paired with cAMP 100 pM,1.3
same,Surface SNAP-GIPR expression,[1]; replicate 1,1.375
same,Surface SNAP-GIPR expression,[1]; replicate 2,0.996
same,Surface SNAP-GIPR expression,[1]; replicate 3,2.76
same,Surface SNAP-GIPR expression,[1]; replicate 4,0.9875
same,Surface SNAP-GIPR expression,[1]; replicate 5,1.257
same,Surface SNAP-GIPR expression,[1]; replicate 6,2.431
same,Surface SNAP-GIPR expression,[1]; replicate 7,1.521
same,Surface SNAP-GIPR expression,[1]; replicate 8,0.9638
same,Surface SNAP-GIPR expression,[1]; replicate 9,1.328
same,Surface SNAP-GIPR expression,[1]; replicate 10,1.382
same,Surface SNAP-GIPR expression,[1]; replicate 11,1.153
same,Surface SNAP-GIPR expression,[1]; replicate 12,1.188
same,Surface SNAP-GIPR expression,[1]; replicate 13,1.165
same,Surface SNAP-GIPR expression,[1]; replicate 14,1.166
same,Surface SNAP-GIPR expression,[1]; replicate 15,1.23
same,Surface SNAP-GIPR expression,[1]; replicate 16,1.047
same,Surface SNAP-GIPR expression,[1]; replicate 17,1.27
same,Surface SNAP-GIPR expression,[1]; replicate 18,1.238
same,Surface SNAP-GIPR expression,[1]; replicate 19,0.9807
same,Surface SNAP-GIPR expression,[1]; replicate 20,0.8682
same,Surface SNAP-GIPR expression,[1]; replicate 21,1.136
same,Surface SNAP-GIPR expression,[1]; replicate 22,1.402
same,Surface SNAP-GIPR expression,[1]; replicate 23,1.295
same,Surface SNAP-GIPR expression,[1]; replicate 24,1.372
same,Surface SNAP-GIPR expression,[1]; replicate 25,1.308
same,Surface SNAP-GIPR expression,[1]; replicate 26,1.104
same,Surface SNAP-GIPR expression,[1]; replicate 27,1.5
same,Surface SNAP-GIPR expression,[1]; replicate 28,1.095
same,Surface SNAP-GIPR expression,[1]; replicate 29,1.555
same,Surface SNAP-GIPR expression,[1]; replicate 30,1.424
same,Surface SNAP-GIPR expression,[1]; replicate 31,1.568
same,Surface SNAP-GIPR expression,[1]; replicate 32,1.239
same,Surface SNAP-GIPR expression,[1]; replicate 33,1.116
same,Surface SNAP-GIPR expression,[1]; replicate 34,1.325
same,Surface SNAP-GIPR expression,[1]; replicate 35,1.446
same,Surface SNAP-GIPR expression,[1]; replicate 36,1.136
same,Surface SNAP-GIPR expression,[1]; replicate 37,0.8646
same,Surface SNAP-GIPR expression,[1]; replicate 38,1.251
same,Surface SNAP-GIPR expression,[1]; replicate 39,1.117
same,Surface SNAP-GIPR expression,[1]; replicate 40,1.314
same,Surface SNAP-GIPR expression,[1]; replicate 41,1.425
same,Surface expression,[2],1.205
same,AD293 100 pM HTRF,"[3]; AD293, 100 pM",1.19
same,AD293 100 nM HTRF,"[3]; AD293, 100 nM",1.331
same,INS-1 cAMP (100 nM),[4],1.234
same,AD293 100 pM cADDis,"[5]; AD293, 100 pM",31.1728
same,AD293 100 nM cADDis,"[5]; AD293, 100 nM",39.27
same,+GIP internalisation (100 nM),"[6]; Fig 4E, GIP 100 nM",0.6926
same,GIP-specific internalisation (100 nM),"[6]; Fig 4E, GIP 100 nM",0.1787
same,Constitutive internalisation (100 nM),[6]; Fig 4E,0.5139
same,Surface expression,[6]; Fig 4E,1.204
same,"Internalisation, +GIP","[6]; Fig S4C, AD293",57.508
same,"Internalisation, GIP-only","[6]; Fig S4C, AD293",14.8294
same,"Internalisation, Vehicle","[6]; Fig S4C, AD293",42.6786
same,+GIP internalisation (100 nM),"[7]; Fig 4G, GIP 100 nM",0.5955
same,GIP-specific internalisation (100 nM),"[7]; Fig 4G, GIP 100 nM",0.1388
same,Constitutive internalisation (100 nM),[7]; Fig 4G,0.4567
same,"Internalisation, +GIP","[7]; Fig S4C, INS-1",50.3417
same,"Internalisation, GIP-only","[7]; Fig S4C, INS-1",11.92
same,"Internalisation, Vehicle","[7]; Fig S4C, INS-1",38.4217
